Test results as given in paper PMC10824877, “Assessment of bioactive peptides derived from laminin-111 as prospective breast cancer-targeting agents” (Amino Acids, 2024).
“Also recorded” adds a separate entry of the source. No end group written: not given here. *: point of attachment. 131I = iodine-131 radiolabel on tyrosine, [131I]*

Tests used:
[1] = Radiochemical stability in serum; assay type: in vitro ADME; conditions: 37 °C, up to 24 h
Description: (§1) The radiochemical stability of the radiopeptides was evaluated in two distinct environments: in saline (n = 3), at room temperature and under refrigeration (4–8 °C), by a period of 48 h after the radiolabeling, and in serum (n = 5), at 37 °C, for up to 24 h after incubation. At predefined time intervals, aliquots were extracted and subjected to ascending chromatography, as previously detailed.

[2] = Radiochemical stability in saline; assay type: physicochemical
Description: as §1

Substance: [^131I]I-KAFDITYVRLKF: laminin-111 γ1 chain C16 peptide KAFDITYVRLKF radiolabeled with iodine-131 at the central tyrosine residue (KAFDITY(131I)VRLKF)
- radiochemical stability in serum [1]: unstable; also recorded: radiochemical instability within the first hour
- decrease of radiochemical purity ([2]; after 24 h, room temperature or under refrigeration): approximately 50%
- radiochemical purity remaining ([2]; both storage conditions, within the specified time interval): around 50%
